Earlier results as cited in patent US11324773B2, “Compounds, compositions and methods for inhibiting a pathogen and/or modifying mucus” (The University of North Carolina at Chapel Hill, priority 2017, dated 2022).

How the values were obtained:
HBE mucus = conditions: 30 μM, 24 h, versus controls
expectorated sputum = conditions: patients with CF, 10 d, 2.5 mg twice daily

In the case of CC(=O)N[C@@H](CS)C(=O)O [N-acetylcysteine], the “decrease of viscosity and elasticity of HBE mucus” value (HBE mucus) is given as “by an order of magnitude”.

B1: dornase alfa (protein, UniProt P24855 23-282, looked up)
Deoxyribonuclease-1: LKIAAFNIQTFGETKMSNATLVSYIVQILSRYDIALVQEVRDSHLTAVGKLLDNLNQDAPDTYHYVVSEPLGRNSYKERYLFVYRPDQVSAVDSYYYDDGCEPCGNDTFNREPAIVRFFSRFTEVREFAIVPLHAAPGDAVAEIDALYDVYLDVQEKWGLEDVMLMGDFNAGCSYVRPSQWSSIRLWTSPTFQWLIPDSADTTATPTHCAYDRIVVAGMLLRGAVVPDSALPFNFQAAYGLSDQLAQAISDHYPVEVMLK
notes: conventional mucolytic therapy used to treat CF
In the case of B1, the “reduction of expectorated sputum elasticity” value (expectorated sputum) is listed as 68% and the “reduction of expectorated sputum viscosity” value (expectorated sputum) is listed as 59%.
